This is an account of results in PMC7290806, “VviWRKY40, a WRKY Transcription Factor, Regulates Glycosylated Monoterpenoid Production by VviGT14 in Grape Berry”.

The data set has as its target T1, VviWRKY40 (Vitis vinifera 'Muscat blanc à Petit …, UniProt E7BTN0 1-317).
T1 sequence: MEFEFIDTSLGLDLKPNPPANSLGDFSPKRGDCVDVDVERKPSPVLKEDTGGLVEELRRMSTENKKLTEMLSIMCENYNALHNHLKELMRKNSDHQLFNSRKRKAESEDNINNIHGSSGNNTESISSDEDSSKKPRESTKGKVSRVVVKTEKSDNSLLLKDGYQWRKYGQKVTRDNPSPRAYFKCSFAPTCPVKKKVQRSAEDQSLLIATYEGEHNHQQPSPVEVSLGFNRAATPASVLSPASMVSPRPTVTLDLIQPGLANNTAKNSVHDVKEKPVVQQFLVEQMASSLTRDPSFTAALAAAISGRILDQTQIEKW
Put plainly: EMSA; shift without cold probe and with up to 50x cold probe; 50x and 200x unlabeled self-competitor tested; EMSA: LightShift Chemiluminescent kit, 50 ng protein, 15 ng probe, room temperature, 25 min (buffer and pH not stated); pull-down: poly(dI-dC), DTT, EDTA, EGTA, 4 °C, 1 h. To be noted: protein: recombinant; tags: 6xHis, pET32a fusion (19 kDa tag, 55 kDa in total); label: 3' biotin (Methods also says digoxigenin-labeled); blunt (duplex implied, only one strand printed). (In general: In EMSA bound probe runs differently from free probe, usually more slowly.)

B1: VviGT14 promoter 41-bp w-box fragment (dsDNA)
DNA 1: AGAAGTGAGAGGGTAAGTTGACCATGCACTCTCATCTAGAT
DNA 2: ATCTAGATGAGAGTGCATGGTCAACTTACCCTCTCACTTCT
With B1, the binding result was “binds”.
